Experimental data reported in patent US20130309248A1 (CRUCELL HOLLAND B V, published 2013).

What was measured:
Experiment in all cases: cell-based or functional assay
[1] = target: T1, HA of virus A/Mallard/Netherlands/12/2000 (H7N3) (influenza A virus (H7N3))
[2] = target: HA of virus A/Solomon Islands/IVR-145 (H1N1) (influenza A virus (H1N1))
[3] = target: T2, HA of virus A/Hiroshima/52/2005 (H3N2) (influenza A virus (H3N2))
[4] = target: T3, HA of virus A/Johannesburg/33/94 (H3N2) (influenza A virus (H3N2))
[5] = target: T4, HA of virus A/Chick/Germany/N/49 (H10) (influenza A virus (H10))
[6] = target: T5, HA of virus A/Panama/2000/1999 (H3N2) (influenza A virus (H3N2))
[7] = target: T6, HA of virus A/Wisconsin/67/2005 (H3N2) (influenza A virus (H3N2))
[8] = target: HA of virus A/Brisbane/59/2007 (H1N1) (influenza A virus (H1N1))
[9] = target: HA of virus A/New Caledonia/20/1999 (H1N1) (influenza A virus (H1N1))
[10] = target: T1, HA of virus …; remark: listed apart in the source
[11] = target: T2, HA of virus A/Hiroshima/52/2005 (H3N2); remark: listed apart in the source
[12] = target: T3, HA of virus A/Johannesburg/33/94 (H3N2); remark: listed apart in the source
[13] = target: T4, HA of virus A/Chick/Germany/N/49 (H10); remark: listed apart in the source
[14] = target: T5, HA of virus A/Panama/2000/1999 (H3N2); remark: listed apart in the source
[15] = target: T6, HA of virus A/Wisconsin/67/2005 (H3N2); remark: listed apart in the source

B1: CR8041 (antibody, V domains shown)
VH: QVQLVQSGAEVKKPGASVKVSCQASGYTFTSFGLSWVRQAPGQGPEWMGWISAYNGEIKYAQKFQGRVSMTTDTSTRTAYMEVRSLRPDDTAVYYCAREPPLYFSSWSLDF
VL: EIVLTQSPGTLSLSPGERATLSCRASQSVSSNYLAWFQQKPGQAPRLLIYGASRRATGIPDRFSGSGSGTDFTLTISRLEPEDFAVYYCQQYDSSPRT
Neutralization titer SK50 [1]: 1.1 µg/mL
Neutralization titer SK50 [2]: > 40 µg/mL
Neutralization titer SK50 [3]: 4.75 µg/mL
Neutralization titer SK50 [4]: 1.69 µg/mL
Neutralization titer SK50 [5]: 25 µg/mL
Neutralization titer SK50 [6]: 2.99 µg/mL
Neutralization titer SK50 [7]: 3.99 µg/mL
Neutralization titer SK50 [8]: > 40 µg/mL
Neutralization titer SK50 [9]: > 40 µg/mL
SK50 titer [10]: 38 µg/mL
SK50 titer [11]: 3.5 µg/mL
SK50 titer [12]: 1.6 µg/mL
SK50 titer [13]: 37.2 µg/mL
SK50 titer [14]: 5 µg/mL
SK50 titer [15]: 3.3 µg/mL
